Data on 4 molecules can be found in PMC12148038, “Enhancement of CEP215 dynamics for spindle pole assembly during mitosis” (Journal of Cell Science, 2025).

As usually defined, the Kd is a measure of binding affinity in units of concentration. Low values mean tighter binding, high ones weaker binding. As a reminder, the stoichiometry N is the number of molecules, sites or subunits per partner or assembly.

Series [1] deals with MBP–CEP215^1661-1893 (human) (UniProt Q96SN8). Description: ITC; 25 µM MBP–CEP215 1661-1893 in the cell, titrated with 250 µM PCNT fragment, 29 injections, 25°C, MicroCal PEAQ-ITC.
Series [2] concerns the molecule itself. Description: SEC-MALS; each purified protein at 1 to 5 mg/ml on Superdex 200 Increase 5/150 GL with MALS-UV-RI detectors. Background: In gel filtration, larger molecules generally elute earlier.
A further series addresses T1, MBP–CEP215^1814-1877 (human, UniProt Q96SN8 1814-1877).
T1 construct: CEP215 (CDK5RAP2), human, residues 1814-1877; source: E. coli Rosetta (DE3) (pET Duet-1 vector), purified (amylose column, SEC)
T1 sequence (looked up): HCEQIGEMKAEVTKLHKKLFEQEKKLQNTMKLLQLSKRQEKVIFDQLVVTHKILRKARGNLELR
In words: SEC; mixture of the two purified proteins, size exclusion chromatography followed by SDS-PAGE of the fractions. The conditions noted are these: both partners purified.

In turn, “PCNT fragment used in the ITC experiment (from UniProt O95613 2350-2450) (domain or fragment)” displayed a dissociation constant Kd in series [1] of 164 nM.

B1: PCNT^2350-2450 (domain or fragment, human, UniProt O95613 2350-2450, looked up)
chain: RLSPGSGGPEAQTAGPVTPASISGRFQPLPEAMKEKEVRPKHVKALLQMVRDESHQILALSEGLAPPSGEPHPPRKEDEIQDISLHGGKTQEVPTACPDWR
notes: PCNT (pericentrin), human, residues 2350-2450; Homodimer by SEC-MALS; calculated monomer mass 11.3 kDa, which fits a fragment without MBP; source: bacterially expressed, purified (amylose column, TEV cleavage, anion exchange, SEC)
On to B1, for which, in series [2], the “stoichiometry N” value worked out at 2.

B2: MBP–PCNT^2388-2420 (domain or fragment, human, UniProt O95613 2388-2420, looked up)
chain: RPKHVKALLQMVRDESHQILALSEGLAPPSGEP
notes: PCNT (pericentrin), human, residues 2388-2420; source: E. coli Rosetta (DE3) (pET Duet-1 vector), purified (amylose column, SEC)
Turning to B2, the binding result in the series with MBP–CEP215^1814-1877 is given as “binds”.

B3: MBP–CEP215^1661-1893 (domain or fragment, human, UniProt Q96SN8 1661-1893, looked up)
chain: MESDNSFDLFDSSQAVTPKSVSETPPLSGNDTDSLSCDSGSSATSTPCVSRLVTGHHLWASKNGRHVLGLIEDYEALLKQISQGQRLLAEMDIQTQEAPSSTSQELGTKGPHPAPLSKFVSSVSTAKLTLEEAYRRLKLLWRVSLPEDGQCPLHCEQIGEMKAEVTKLHKKLFEQEKKLQNTMKLLQLSKRQEKVIFDQLVVTHKILRKARGNLELRPGGAHPGTCSPSRPGS
notes: Homodimer by SEC-MALS; calculated monomer mass with MBP 71.8 kDa; also called CEP215 fragment; source: bacterially expressed (pPROEX vector), purified (amylose column, SEC)
In the case of B3, the “stoichiometry N” value in series [2] was determined as 2.
